Assay results reported in the supplement of paper PMC12458215.
± gives the uncertainty stated by the source.

Test system: HEK293T
Assay: plasma membrane surface immunostaining intensity (anti-HA, deep receptor scanning) (arbitrary fluorescence units); higher = higher plasma membrane expression

## MLGPAYNHTMETPASFLLVGIPGLQSSHLWLAISLSAMYITALLGNTLIVTAIWMDSTRHEPMYCFLCVLAAVDIVMASSVVPKMVSIFCSGDSSISFSACFTQMFFVHLATAVETGLLLTMAFDRYVAICKPLHYKRILTPQVMLGMSMAVTIRAVTFMTPLSWMMNHLPFCGSNVVVHSYCKHIALARLACADPVPSSLYSLIGSSLMVGSDVAFIAASYILILRAVFDLSSKTAQLKALSTCGSHVGVMALYYLPGMASIYAAWLGQDIVPLHTQVLLADLYVIIPATLNPIIYGMRTKQLLEGIWSYLMHFLFDHSNLGS [OR52I1]
GPCR class: A (Olfactory)
  plasma membrane surface immunostaining intensity: 157 ± 16

## MLLCTARLVGLQLLISCCWAFACHSTESSPDFTLPGDYLLAGLFPLHSGCLQVRHRPEVTLCDRSCSFNEHGYHLFQAMRLGVEEINNSTALLPNITLGYQLYDVCSDSANVYATLRVLSLPGQHHIELQGDLLHYSPTVLAVIGPDSTNRAATTAALLSPFLVPMISYAASSETLSVKRQYPSFLRTIPNDKYQVETMVLLLQKFGWTWISLVGSSDDYGQLGVQALENQATGQGICIAFKDIMPFSAQVGDERMQCLMRHLAQAGATVVVVFSSRQLARVFFESVVLTNLTGKVWVASEAWALSRHITGVPGIQRIGMVLGVAIQKRAVPGLKAFEEAYARADKKAPRPCHKGSWCSSNQLCRECQAFMAHTMPKLKAFSMSSAYNAYRAVYAVAHGLHQLLGCASGACSRGRVYPWQLLEQIHKVHFLLHKDTVAFNDNRDPLSSYNIIAWDWNGPKWTFTVLGSSTWSPVQLNINETKIQWHGKDNQVPKSVCSSDCLEGHQRVVTGFHHCCFECVPCGAGTFLNKSDLYRCQPCGKEEWAPEGSQTCFPRTVVFLALREHTSWVLLAANTLLLLLLLGTAGLFAWHLDTPVVRSAGGRLCFLMLGSLAAGSGSLYGFFGEPTRPACLLRQALFALGFTIFLSCLTVRSFQLIIIFKFSTKVPTFYHAWVQNHGAGLFVMISSAAQLLICLTWLVVWTPLPAREYQRFPHLVMLECTETNSLGFILAFLYNGLLSISAFACSYLGKDLPENYNEAKCVTFSLLFNFVSWIAFFTTASVYDGKYLPAANMMAGLSSLSSGFGGYFLPKCYVILCRPDLNSTEHFQASIQDYTRRCGST [TAS1R1]
GPCR class: Taste
  plasma membrane surface immunostaining intensity: 124 ± 5.5

## MLLETQDALYVALELVIAALSVAGNVLVCAAVGTANTLQTPTNYFLVSLAAADVAVGLFAIPFAITISLGFCTDFYGCLFLACFVLVLTQSSIFSLLAVAVDRYLAICVPLRYKSLVTGTRARGVIAVLWVLAFGIGLTPFLGWNSKDSATNNCTEPWDGTTNESCCLVKCLFENVVPMSYMVYFNFFGCVLPPLLIMLVIYIKIFLVACRQLQRTELMDHSRTTLQREIHAAKSLAMIVGIFALCWLPVHAVNCVTLFQPAQGKNKPKWAMNMAILLSHANSVVNPIVYAYRNRDFRYTFHKIISRYLLCQADVKSGNGQAGVQPALGVGL [ADORA2B]
GPCR class: A
  plasma membrane surface immunostaining intensity: 1240 ± 140

## MLMKKNASFEDFFLLLGFSNWPHLEVVLFVVILIFYLITLIGNLFIIILSYLDSHLHTPMYFFLSNLSFLDLCYTTSSIPQLLVNLWGPEKTISYAGCTVQLYFVLALGTAECVLLVVMSYDRYAAVCRPLHYTVLMHPRFCRLLAAASWVSGFTTSALHSSFTFWIPLCRHRLVDHFFCEVPALLRLSCVDTQANELTLMVMSSIFVLIPLILILTSYGAIARAVLSMQSTTGLQKVLRTCGAHLMVVSLFFIPVMCMYLQPPSENSQDQGKFIALFYTVVTPSLNPLIYTFRNKDVRGAVKRLMGWEWGM [OR2J1]
GPCR class: A (Olfactory)
  plasma membrane surface immunostaining intensity: 133 ± 36

## MLMNYSSATEFYLLGFPGSEELHHILFAIFFFFYLVTLMGNTVIIMIVCVDKRLQSPMYFFLGHLSALEILVTTIIVPVMLWGLLLPGMQTIYLSACVVQLFLYLAVGTTEFALLGAMAVDRYVAVCNPLRYNIIMNRHTCNFVVLVSWVFGFLFQIWPVYVMFQLTYCKSNVVNNFFCDRGQLLKLSCNNTLFTEFILFLMAVFVLFGSLIPTIVSNAYIISTILKIPSSSGRRKSFSTCASHFTCVVIGYGSCLFLYVKPKQTQAADYNWVVSLMVSVVTPFLNPFIFTLRNDKVIEALRDGVKRCCQLFRN [OR9A4]
GPCR class: A (Olfactory)
  plasma membrane surface immunostaining intensity: 185 ± 75

## MLNFTDVTEFILLGLTSRREWQVLFFIIFLVVYIITMVGNIGMMVLIKVSPQLNNPMYFFLSHLSFVDVWFSSNVTPKMLENLLSDKKTITYAGCLVQCFFFIALVHVEIFILAAMAFDRYMAIGNPLLYGSKMSRVVCIRLITFPYIYGFLTSLAATLWTYGLYFCGKIEINHFYCADPPLIKMACAGTFVKEYTMIILAGINFTYSLTVIIISYLFILIAILRMRSAEGRQKAFSTCGSHLTAVIIFYGTLIFMYLRRPTEESVEQGKMVAVFYTTVIPMLNPMIYSLRNKDVKKAMMKVISRSC [OR5M3]
GPCR class: A (Olfactory)
  plasma membrane surface immunostaining intensity: 120 ± 24

## MLNTTSVTEFLLLGVTDIQELQPFLFVVFLTIYFISVTGNGAVLMIVISDPRLHSLMYFFLGNLSYLDICYSTVTLPKMLQNFLSTHKAISFLGCISQLHFFHSLGSTESMLFAVMAFDLSVAICKPLRYTVIMNPQLCTQMAITIWVIGFFHALLHSVMTSRLNFCGSNRIHHFLCDIKPLLKLACGNTELNQWLLSTVTGTIAMGPFFLTLLSYFYIITYLFFKTRSCSMLCKALSTCASHFMVVILFYAPVLFTYIHPALESFMDQDRIVAIMYTVVTPVLNPLIYTLRNKEVKGALGRVIRRL [OR12D2]
GPCR class: A (Olfactory)
  plasma membrane surface immunostaining intensity: 126 ± 22

## MLPDWKSSLILMAYIIIFLTGLPANLLALRAFVGRIRQPQPAPVHILLLSLTLADLLLLLLLPFKIIEAASNFRWYLPKVVCALTSFGFYSSIYCSTWLLAGISIERYLGVAFPVQYKLSRRPLYGVIAALVAWVMSFGHCTIVIIVQYLNTTEQVRSGNEITCYENFTDNQLDVVLPVRLELCLVLFFIPMAVTIFCYWRFVWIMLSQPLVGAQRRRRAVGLAVVTLLNFLVCFGPYNVSHLVGYHQRKSPWWRSIAVVFSSLNASLDPLLFYFSSSVVRRAFGRGLQVLRNQGSSLLGRRGKDTAEGTNEDRGVGQGEGMPSSDFTTE [FFAR2]
GPCR class: A
  plasma membrane surface immunostaining intensity: 3600 ± 470

## MLRLFYFSAIIASVILNFVGIIMNLFITVVNCKTWVKSHRISSSDRILFSLGITRFLMLGLFLVNTIYFVSSNTERSVYLSAFFVLCFMFLDSSSVWFVTLLNILYCVKITNFQHSVFLLLKRNISPKIPRLLLACVLISAFTTCLYITLSQASPFPELVTTRNNTSFNISEGILSLVVSLVLSSSLQFIINVTSASLLIHSLRRHIQKMQKNATGFWNPQTEAHVGAMKLMVYFLILYIPYSVATLVQYLPFYAGMDMGTKSICLIFATLYSPGHSVLIIITHPKLKTTAKKILCFKK [TAS2R4]
GPCR class: Taste
  plasma membrane surface immunostaining intensity: 139 ± 19

## MLRNGSIVTEFILVGFQQSSTSTRALLFALFLALYSLTMAMNGLIIFITSWTDPKLNSPMYFFLGHLSLLDVCFITTTIPQMLIHLVVRDHIVSFVCCMTQMYFVFCVGVAECILLAFMAYDRYVAICYPLNYVPIISQKVCVRLVGTAWFFGLINGIFLEYISFREPFRRDNHIESFFCEAPIVIGLSCGDPQFSLWAIFADAIVVILSPMVLTVTSYVHILATILSKASSSGRGKTFSTCASHLTVVIFLYTSAMFSYMNPHSTHGPDKDKPFSLLYTIITPMCNPIIYSFRNKEIKEAMVRALGRTRLAQPQSV [OR10AD1]
GPCR class: A (Olfactory)
  plasma membrane surface immunostaining intensity: 326 ± 140

## MLSAGLGLLMLVAVVEFLIGLIGNGSLVVWSFREWIRKFNWSSYNLIILGLAGCRFLLQWLIILDLSLFPLFQSSRWLRYLSIFWVLVSQASLWFATFLSVFYCKKITTFDRPAYLWLKQRAYNLSLWCLLGYFIINLLLTVQIGLTFYHPPQGNSSIRYPFESWQYLYAFQLNSGSYLPLVVFLVSSGMLIVSLYTHHKKMKVHSAGRRDVRAKAHITALKSLGCFLLLHLVYIMASPFSITSKTYPPDLTSVFIWETLMAAYPSLHSLILIMGIPRVKQTCQKILWKTVCARRCWGP [TAS2R5]
GPCR class: Taste
  plasma membrane surface immunostaining intensity: 123 ± 18

## MLSTSRSRFIRNTNESGEEVTTFFDYDYGAPCHKFDVKQIGAQLLPPLYSLVFIFGFVGNMLVVLILINCKKLKCLTDIYLLNLAISDLLFLITLPLWAHSAANEWVFGNAMCKLFTGLYHIGYFGGIFFIILLTIDRYLAIVHAVFALKARTVTFGVVTSVITWLVAVFASVPGIIFTKCQKEDSVYVCGPYFPRGWNNFHTIMRNILGLVLPLLIMVICYSGILKTLLRCRNEKKRHRAVRVIFTIMIVYFLFWTPYNIVILLNTFQEFFGLSNCESTSQLDQATQVTETLGMTHCCINPIIYAFVGEKFRSLFHIALGCRIAPLQKPVCGGPGVRPGKNVKVTTQGLLDGRGKGKSIGRAPEASLQDKEGA [CCR2]
GPCR class: A
  plasma membrane surface immunostaining intensity: 137 ± 20

## MLTLTRIRTVSYEVRSTFLFISVLEFAVGFLTNAFVFLVNFWDVVKRQALSNSDCVLLCLSISRLFLHGLLFLSAIQLTHFQKLSEPLNHSYQAIIMLWMIANQANLWLAACLSLLYCSKLIRFSHTFLICLASWVSRKISQMLLGIILCSCICTVLCVWCFFSRPHFTVTTVLFMNNNTRLNWQIKDLNLFYSFLFCYLWSVPPFLLFLVSSGMLTVSLGRHMRTMKVYTRNSRDPSLEAHIKALKSLVSFFCFFVISSCAAFISVPLLILWRDKIGVMVCVGIMAACPSGHAAILISGNAKLRRAVMTILLWAQSSLKVRADHKADSRTLC [TAS2R38]
GPCR class: Taste
  plasma membrane surface immunostaining intensity: 123 ± 18

## MMCFLLIISSILVVFAFVLGNVANGFIALVNVIDWVNTRKISSAEQILTALVVSRIGLLWVMLFLWYATVFNSALYGLEVRIVASNAWAVTNHFSMWLAASLSIFCLLKIANFSNLISLHLKKRIKSVVLVILLGPLVFLICNLAVITMDERVWTKEYEGNVTWKIKLRNAIHLSSLTVTTLANLIPFTLSLICFLLLICSLCKHLKKMRLHSKGSQDPSTKVHIKALQTVTSFLMLFAIYFLCIITSTWNLRTQQSKLVLLLCQTVAIMYPSFHSFILIMGSRKLKQTFLSVLWQMTR [TAS2R19]
GPCR class: Taste
  plasma membrane surface immunostaining intensity: 370 ± 230

## MMGLTEGVFLILSGTQFTLGILVNCFIELVNGSSWFKTKRMSLSDFIITTLALLRIILLCIILTDSFLIEFSPNTHDSGIIMQIIDVSWTFTNHLSIWLATCLGVLYCLKIASFSHPTFLWLKWRVSRVMVWMLLGALLLSCGSTASLINEFKLYSVFRGIEATRNVTEHFRKKRSEYYLIHVLGTLWYLPPLIVSLASYSLLIFSLGRHTRQMLQNGTSSRDPTTEAHKRAIRIILSFFFLFLLYFLAFLIASFGNFLPKTKMAKMIGEVMTMFYPAGHSFILILGNSKLKQTFVVMLRCESGHLKPGSKGPIFS [TAS2R3]
GPCR class: Taste
  plasma membrane surface immunostaining intensity: 135 ± 22

## MMIKKNASSEDFFILLGFSNWPQLEVVLFVVILIFYLMTLTGNLFIIILSYVDSHLHTPMYFFLSNLSFLDLCHTTSSIPQLLVNLRGPEKTISYAGCMVQLYFVLALGIAECVLLVVMSYDRYVAVCRPLHYTVLMHPRFCHLLAAASWVIGFTISALHSSFTFWVPLCGHRLVDHFFCEVPALLRLSCVDTHANELTLMVMSSIFVLIPLILILTAYGAIARAVLSMQSTTGLQKVFRTCGAHLMVVSLFFIPVMCMYLQPPSENSPDQGKFIALFYTVVTPSLNPLIYTLRNKHVKGAAKRLLGWEWGK [OR2J2]
GPCR class: A (Olfactory)
  plasma membrane surface immunostaining intensity: 82.9 ± 16

## MNATGTPVAPESCQQLAAGGHSRLIVLHYNHSGRLAGRGGPEDGGLGALRGLSVAASCLVVLENLLVLAAITSHMRSRRWVYYCLVNITLSDLLTGAAYLANVLLSGARTFRLAPAQWFLREGLLFTALAASTFSLLFTAGERFATMVRPVAESGATKTSRVYGFIGLCWLLAALLGMLPLLGWNCLCAFDRCSSLLPLYSKRYILFCLVIFAGVLATIMGLYGAIFRLVQASGQKAPRPAARRKARRLLKTVLMILLAFLVCWGPLFGLLLADVFGSNLWAQEYLRGMDWILALAVLNSAVNPIIYSFRSREVCRAVLSFLCCGCLRLGMRGPGDCLARAVEAHSGASTTDSSLRPRDSFRGSRSLSFRMREPLSSISSVRSI [S1PR4]
GPCR class: A
  plasma membrane surface immunostaining intensity: 6452 ± 53
